Results published in patent US20150284428A1 (INTERK PEPTIDE THERAPEUTICS, published 2015).

Target: T1, cytoplasmic domain of β6 having the amino acid sequence HDRKEVAKFEAERSKAKWQTGTNPLYRGSTSTFKNVTYKHREKQKVDLSTDC
T1 construct: Integrin β6 subunit cytoplasmic domain; also called β6 domain; cytoplasmic domain fragment of β6
T1 chain: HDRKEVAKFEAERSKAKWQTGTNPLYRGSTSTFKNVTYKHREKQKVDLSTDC
Assay: binding assay of MAP kinase fragments with β6 cytoplasmic domain, FIG. 4

Binder: HRDLKPSNLAVNEDCELKILDFGLAR (also called fragment of p38 MAP kinase) [p38 MAP kinase fragment HRDLKPSNLAVNEDCELKILDFGLAR]
- binding result: binds
